Results from patent US20220403031A1 (WUXI BIOLOGICS IRELAND, published 2022).

Assays:
[1] = molecular target: PD-L1 (target of the serum stability flow cytometry); assay: flow cytometry binding to PD-L1 of AP3R2-1A3-z12-hIgG1 kept 0, 1, 4, 7 or 14 days in human serum at 37 C
Experimental: Fresh human serum was prepared from healthy donor by centrifugation. Testing antibody was mixed with serum and ensure the serum content >90% of total volume. The mix aliquots were incubated at 37° C. for 0 day, 1 day, 4 days, 7 days and 14 days, respectively. At the indicated time point the samples were quickly-frozen in liquid nitrogen and stored at −80° C. until analysis. The bindings to PD-L1 of the aliquots at above time points were evaluated by flow cytometry, respectively.

[2] = molecular target: T1, hCD80.ECD.His (SinoBiological-10698-H08H) (human, UniProt P33681 35-242); assay: ELISA on coated protein (1 ug/mL)
T1 construct: extracellular domain; His tag
T1 sequence (looked up): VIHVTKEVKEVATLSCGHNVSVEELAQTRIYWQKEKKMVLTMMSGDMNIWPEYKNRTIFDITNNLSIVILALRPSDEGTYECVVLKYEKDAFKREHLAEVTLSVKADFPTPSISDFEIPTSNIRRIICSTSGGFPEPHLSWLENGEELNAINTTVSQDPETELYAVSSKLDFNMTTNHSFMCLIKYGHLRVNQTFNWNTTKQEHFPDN
Experimental: (§1) The plate was incubated at ambient temperature for 1 hour. The binding of the antibodies to the immobilized proteins was detected by HRP-labeled goat anti-human IgG antibody. The color was developed by dispensing 100 μL of TMB substrate, and then stopped by 100 μL of 2N HCl. The absorbance was read at 450 nm and 540 nm using a microplate spectrophotometer, respectively.

[3] = molecular target: T2, hPD-L2.ECD.His (SinoBiological-10292-H08H) (human, UniProt Q9BQ51 20-220); assay: ELISA on coated protein (1 ug/mL)
T2 construct: extracellular domain; His tag
T2 sequence (looked up): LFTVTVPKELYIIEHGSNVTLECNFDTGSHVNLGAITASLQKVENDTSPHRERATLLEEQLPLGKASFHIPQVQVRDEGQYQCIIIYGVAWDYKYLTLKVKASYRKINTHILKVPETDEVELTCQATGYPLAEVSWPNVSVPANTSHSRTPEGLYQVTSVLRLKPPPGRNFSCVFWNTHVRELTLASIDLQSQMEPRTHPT
Experimental: as §1

[4] = molecular target: T3, hCD86.ECD.His (SinoBiological-10699-H08H) (human, UniProt P42081 24-247); assay: ELISA on coated protein (1 ug/mL)
T3 construct: extracellular domain; His tag
T3 sequence (looked up): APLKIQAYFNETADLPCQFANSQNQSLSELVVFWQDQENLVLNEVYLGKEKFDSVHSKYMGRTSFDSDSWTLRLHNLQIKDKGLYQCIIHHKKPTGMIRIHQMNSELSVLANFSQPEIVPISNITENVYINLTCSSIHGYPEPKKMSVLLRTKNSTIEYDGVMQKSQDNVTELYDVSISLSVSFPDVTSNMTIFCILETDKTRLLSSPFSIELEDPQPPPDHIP
Experimental: as §1

Chain of PD-L1 (target of the serum stability flow cytometry) (chain, as listed by the source): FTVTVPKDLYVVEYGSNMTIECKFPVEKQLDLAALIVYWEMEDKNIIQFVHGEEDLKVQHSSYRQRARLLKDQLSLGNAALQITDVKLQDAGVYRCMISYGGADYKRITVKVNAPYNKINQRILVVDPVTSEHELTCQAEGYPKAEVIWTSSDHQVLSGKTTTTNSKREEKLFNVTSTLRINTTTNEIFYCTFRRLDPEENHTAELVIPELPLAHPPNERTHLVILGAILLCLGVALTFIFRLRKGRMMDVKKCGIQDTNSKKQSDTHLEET

B1: AP3R2-1A3-z12-hIgG1 (Fc fusion)
chain: EVQLVESGGGLVQPGGSLRLSCAASGHFSNLAVNWFRQAPGKERELVAGILWSGGSTFYADSVKGRFTISRGNAENMLYLQMNSLRAEDTAVYYCNTGTNWGQGTLVTVSS
notes: VHH-Fc (hIgG1) fusion of the humanized VHH; also called W3156-AP3R2-1A3-z12-hIgG1; W3156 antibody; not shown: Fc of human IgG1
- EC50 (read off the curve) [1]: ~0.7 nM
- binding result [2]: no binding (tested: 66.7 nM)
- binding result [3]: no binding (tested: 66.7 nM)
- binding result [4]: no binding (tested: 66.7 nM)
